Test results reported in paper PMC5690283.

Target: E-Syt2 C2B domain (within the E-syt2 C2AB construct, 343-646, C611S) (human)
Test: single-molecule force spectroscopy (optical tweezers); the two C2 domains stand on one chain (C2AB); N-terminus held by biotin-streptavidin on a bilayer-coated silica bead or a streptavidin-coated bead, C-terminus on a DNA handle to a polystyrene bead; pulled at 10 nm/s or held at constant trap separation; 25 mM HEPES pH 7.4, 200 mM NaCl, 100 uM Ca2+, room temperature (~23 C)

E-Syt2 C2A domain (within the E-syt2 C2AB construct, 343-646, C611S) (domain or fragment)
force at which the two domains dissociate: 8 to 13 pN
force of reversible dissociation and re-association: 11 pN
